{
  "source": "patent US20020032322A1",
  "data": [
    {"biological_target": "TWIK-1 (human)", "assay": "cell-based or functional assay", "units": {"inhibition of TWIK-1 K+ currents (voltage clamp, Xenopus oocytes)": "% inhibition"}, "values": [
      {"substance": "apamin (from UniProt P01500 28-45) (peptide)", "inhibition of TWIK-1 K+ currents (voltage clamp, Xenopus oocytes)": "< 10"},
      {"substance": "charybdotoxine (from UniProt P13487 23-59) (peptide)", "inhibition of TWIK-1 K+ currents (voltage clamp, Xenopus oocytes)": "< 10"},
      {"substance": "dedrotoxine (peptide)", "inhibition of TWIK-1 K+ currents (voltage clamp, Xenopus oocytes)": "< 10"}
    ]}
  ]
}
